# Test results published in the DeepSol protein solubility set.
# Assay: soluble on expression in E. coli; label from the status in PepcDB or PDB records
row,Sequence,soluble on expression in E. coli
1,MSATSVDTQRTKGQDNKVQNGSLHQKDTVHDNDFEPYLTGQSNQSNSYPSMSDPYLSSYYPPSIGFPYSLNEAPWSTAGDPPIPYLTTYGQLSNGDHHFMHDAVFGQPGGLGNNIYQHRFNFFPENPAFSAWGTSGSQGQQTQSSAYGSSYTYPPSSLGGTVVDGQPGFHSDTLSKAPGMNSLEQGMVGLKIGDVSSSAVKTVGSVVSSVALTGVLSGNGGTNVNMPVSKPTSWAAIASKPAKPQPKMKTKSGPVMGGGLPPPPIKHNMDIGTWDNKGPVPKAPVPQQAPSPQAAPQPQQVAQPLPAQPPALAQPQYQSPQQPPQTRWVAPRNRNAAFGQSGGAGSDSNSPGNVQPNSAPSVESHPVLEKLKAAHSYNPKEFEWNLKSGRVFIIKSYSEDDIHRSIKYSIWCSTEHGNKRLDSAFRCMSSKGPVYLLFSVNGSGHFCGVAEMKSPVDYGTSAGVWSQDKWKGKFDVQWIFVKDVPNNQLRHIRLENNDNKPVTNSRDTQEVPLEKAKQVLKIISSYKHTTSIFDDFAHYEKRQEEEEVVRKERQSRNKQ,soluble
2,MSLSETLTLSDAKSIIENQIEELAKRNKEPEWMTKIRYKALEEFMKAPLNDPVIDEETLLNFIAKPEIEGIPEKVESLDDLPPEMKDLLDRLGINEVEQKYIAGLAVQTDTGVIYNQFLQEWAKKGLIVLPTEEAVRRYPDIMKEHFLKLFKAGESKLTAYHIAIWNGGIFLYVKENLKVPFPLHLFFLIQESSLAQAPHITIIAEKNSEVHLIEGCTAPILVRHSLHLDMTEAYLHENAKVRLTVLQNWPEYVHTRPMTRAKVGRNAEFINTTVSLGAGKSNIANPKYWVGENGYVELNGVILGQKDWYIDLGGEMHLQGEGGRGINASKSVIMDESTVITRGKIVAEAKKTKGHISCDALLLSDKARMETYPGLVSLVDEAELSHEAAIGKIKEEELFYLMSRGLSEEKATQLIVKGFVEPMLKDIPIEFVVEIKKIIELAVSGGFEGHHHHHH,soluble
3,MGSDKIHHHHHHMKQGSLFENSQRNTPLASRVRPQTLDQFVGQAHLLGPGKILRELIENDQVSSMIFWGPPGVGKTTLAEIIARQTQATFLSFSAVDSSISKIKKIMHQAEADREIGEQTIVFVDEIHRFNKAQQDAFLPYVERGSIILIGATTENPSFEVNSALLSRCKVFVLKALATADIDQLLRNALTNPAGFSGRVTIGDAELRAIAEFANGDARMALNTLEMAVLNGDKQGDQVTVTQADLKQLITQKFVLYDKTGEEHYNIISALHKSMRNSDPDAAIYWLTRMLSGGEDPLYVARRLVRFASEDIGLADTNALNVAINVFQACQFLGMPECNVHLVEAVTYLSLAPKSNAIYKASQAAQKDVQQTRDEPVPLQLRNAPTKLMKDLGYGADYQYAHESAAKLTTMQTLPEALRGHVYYEPTEQGREGRFKARLAEIKRWQQQHRD,not soluble
4,MPVAVMADNAFSFRKLLDQCENQELEAPGGIATPPVYGQLLALYLLQNDMNNARYLWKRIPPAIKSANSELGGIWSVGQRIWQRDFPGIYTTINAHQWSETVQPIMEALRDATRRRAFALVSQAYTSIIADDFAAFVGLPVEEAVKGVLEQGWQADSTTRMVLPRKPAPGALDVSLNRFIPLSEPAPVPPIPNEQQLARLTDYVAFLEN,not soluble
5,MNNNTTAPTYTLRGLQLIGWRDMQHALDYLFADGQLKQGTLVAINAEKMLTIEDNAEVRELINAAEFKYADGISVVRSVRKKYPQAQVSRVAGADLWEELMARAGKEGTPVFLVGGKPEVLAQTEAKLRNQWNVNIVGSQDGYFKPEQRQALFERIHASGAQIVTVAMGSPKQEIIMRDCRLVHPDALYMGVGGTYDVFTGHVKRAPKIWQTLGLEWLYRLLSQPSRIKRQLRLLRYLRWHYTGNL,soluble
6,MGSDKIHHHHHHMGQIRVSGLGKAYKQYPNRWSRLFEWLVPFSPPRHHLHWILREVEFTIEPGEAVGIVGVNGAGKSTLLKMIAGTTQPTCGEIRVAGRVAALLELGMGFHPDFTGRQNVFMAGQLLGMQVEEIQALMPDIEAFAEIGEAIEQPVRTYSSGMQMRLAFSVATARRPDILIVDEALSVGDAYFQHKSFERIRSFRKAGTTLLIVSHDRSAIQSICDSAILLEQGRMAMRGRPEEVMDYYNALLAEREGQTVRQEMLADGQVRTISGTGEAAILDVRMVDQRQRALEVVEVGQAVTLEVEVEVRQDIERLILGFMIKDRLGQPMYGINTHRLDKALTDLKAGERITYRFAFDMRLGKGHYSVALSLSRLDSHLDRNFEWRDYGLVFHVINNRQEDFVGCSWLGAETHISRSGEAALDPTSAESTP,not soluble
7,EKAQLIGPEDADITFVTWGSQKGPILDVIEDLKQDDITANLLYLKMFSPFPTEFVKSILSKAHLVIDVESNFTAQAAQMIKLYTGIEIENKILKYNGRHMTEDEILNSAKNILNK,not soluble
8,MANEMKVFLLTKQGQEVMERQRKKQVLLSDPKAVYQDHFVSVRPDCLVVKKYFIPSMLPFEFHWDKIETMTYLPQNNENKLLVPNRGQDQEGRWWATDVLRPHERELHLYNVRIDVADTEPSKSGFTVIHIDQFLKSCRHLLPYSCKLSGCVWSE,not soluble
9,MPGTRFSGKVVLISGSSKGIGQATAVKFAAEGAKIVLNGRSADDVEKTRKLCMEVGAKPWDLLPTVGDITNEDFVKMMVNTVIHNFGKLDILINNAGTLEVDMTGKEGWEMGVDVMDRSWNSNFKSVLMLTQAAMPHLIKTKGDIVNVSTFLSSGPIGVMSMPYYAVPKAALDQMSRSMAHEYMLKGVRLNTVNPGLVSTSFFARLPGVGDDNARKMENYVQSKTEYIPLGRVCQASDVAETILFLADRKVSECIVGQSIIIDGGSRLCCNIDMSDFKEQMAKA,not soluble
10,MSHQEQQEQEIEALEAIYSEEEIHVASRDYPNIELSIQLKSNQYEDPTDDDFDVELGIEFTENYPDEIPIITLNGIEDAFTAERIAESIDKLRSVAEENLGMVMVFAIVSALQDEIGELVDVKKRAKEEKVEIEKEKKEAESRKKFEGTVVTPDTFRAWKDRFDEERKAEIDAAEKERLASLAGRLTGRQLFLRDATLNLSDVTLIGAQDEVEIDESLFDNEELEGLEMDSEEEEEDDEE,soluble
11,SLLPNILLTGTPGVGKTTLGKELASKSGLKYINVGDLAREEQLYDGYDEEYDCPILDEDRVVDELDNQMREGGVIVDYHGCDFFPERWFHIVFVLRTDTNVLYERLETRGYNEKKLTDNIQCEIFQVLYEEATASYKEEIVHQLPSNKPEELENNVDQILKWIEQWIKDHNS,soluble
12,MLITDTLSPQAFEEALRAKGDFYHIHHPYHIAMHNGNATREQIQGWVANRFYYQTTIPLKDAAIMANCPDAQTRRKWVQRILDHDGSHGEDGGIEAWLRLGEAVGLSRDDLLSERHVLPGVRFAVDAYLNFARRACWQEAACSSLTELFAPQISQSRLDSWPQHYPWIKEEGYFYFRSRLSQANRDVEHGLALAKAYCDSAEKQNRMLEILQFKLDILWSMLDAMTMAYALQRPPYHTVTDKAAWHTTRLVLEHHHHH,soluble
13,MGSSHHHHHHGGTGENLYFQGGSGAGIKSRERLRRDQERQLRQLPFLYHRVKDLQDTCERLEQELASSHQRVAAFQQEAFALRSLIKFTEHPELAAAAKNDAAKHVLQEEVRELRNQVQRLRREKELSLRQSEEACEAAEFYKELCDQLYEESLRAAEAIAVGGATSGLESVVTPLPNRNVDDMTLAVSTAPSTATSMEAQMRQLHGALELERARSSALVETVSLLHTAMKATTAAGTKRSTPAPDSSAGWAERRREDDTSGICASRSRVFADDTRKSRTRLKRLAAVLRVENRLLTQRVTEVVARNMRCVKEISALKLANKRLELNQRQES,soluble
14,MSRGFALLGWLNPAQRQAVTAPCGHLCINAAAGTGKTTTVAARILWLQLVQDVPPEAILAVTFSRAARAHLLDRVEAFTRVLGAGGAVPTFTLHGLAYRILRIAIGAGETWLRPGFGVISVGRDRINPLLQEHAADLLGDLSDPWDLPTRVEQYSRALDAVRQGCADIEEGLPLEPDDLPDGVLYVPARIETPNLRKVWRRYNRMLRARNYLDYPGMVTEAILALYREGKTLQRARANLEYIIVDEYQDTSRAQEELIQLLVGERTSVTVVGDSDQAIYTFNGADIGNILHFAERILETGSALPVLEPVHLVENYRSSACILDAANRVLDRIHGPGRKQLVPYPGTVDEPVESYRRRNLEVVRVHAGSLDQAAFWAASEIARLVTEEGIEPSDIAVLVRKDTEHAPQGRAVRLALERLGIRAEEQERDPIRSSHVYEVVRDLCGDPDYYGEDIGDMIERIAAGEFRDALGDVTPDEATALLREAQAAGAEFAGEVVDFVFEQGAPDATPASLEGVQVRTIHSAKGLEFRVVFLMYLSDREFPHGAHPDVAEERRLYYVGLTRAQERLYVLGQPGVRNEDFFGAIDGSGVVTVHVEPWRDRSPSSEEAVDDETLRLIQEARRRQHDMFLRRP,soluble
15,GSGMEQFPKETVVESSGPKVLETAEEIQERRQEVLTRYQSFKERVAERGQKLEDSYHLQVFKRDADDLGKWIMEKVNILTDKSYEDPTNIQGKYQKHQSLEAEVQTKSRLMSELEKTREERFTMGHSAHEETKAHIEELRHLWDLLLELTLEKGDQLLRAL,soluble
16,MPFHYPKLYMDHRGNMSTSSSLTSSTTATSSSSTGGVRKQILTLKPKQPNGYVQHLEIKAKESSQSSVISGGVPVPVTLLELKKKDRSEKNVVTNLKYRKPTANHHLDSVHSSSEHHHHHHLSLSSLTRRPGSPSSSGYETDSLVDQENCDVFSSLFNSSLSYQSALDHHHQFHELDMLHSHPIWSPQLPNNNTSLMMGSNSYYLQ,not soluble
17,MNPNFTTEHTWQGRHDPEDGQAGRRVHHIACPIQVGELANQEPGVALIGFECDAGVERNKGRTGAKHAPSLIKQALANLAWHHPIPIYDLGNIRCEGDELEQAQQECAQVIQQALPHARAIVLGGGHEIAWATFQGLAQHFLATGVKQPRIGIINFDAHFDLRTFESELAPVRPSSGTPFNQIHHFCQQQGWDFHYACLGVSRASNTPALFERADKLGVWYVEDKAFSPLSLKDHLTQLQHFIDDCDYLYLTIDLDVFPAASAPGVSAPAARGVSLEALAPYFDRILHYKNKLMIADIAEYNPSFDIDQHTARLAARLCWDIANAMAEQVQSIRHP,soluble
18,LTPILGYGRVRAKVSADIDFTSYEQTQELFNPELSALRSEQTMQESRNASNEASGVPGTLSNTPQPNSSLGQKNNPQQNATPNNLPQQTSSDQMQAKDVRMQTTKNFELDKTISHTKNQPGTIKRLSVAVLVDNRPVMNDKTKKLEKKPLTKEEIEQIKLLVSDAIGLNVKRGDSLNVINSSF,not soluble
19,MAHHHHHHMGKPKYLKKKQAAAAAGSEDGADKDVSDNTENTNGSPTTTNALGKQSEAAKEEPHSSGAMVSFANPVYRQGVNDILVEKLDISYQGNAILENATLNLVSGHRYGLVGPNGCGKSTLLRVLGCHEIPFPSHVDRYYVSQEVEASDMSALDAVLAVDKEREKLESEMEDLALGDQEDPHVLSRLDDIYKRLDELDADTAAARAGKILFGLGFTKEMQRRPTKAFSGGWRMRISLAQALFINPTVLLLDEPTNHLDIEAVVWLENYLSKFKKTLFMVSHSQDFMNNVCTDICHMHLKKLNCYDGNYDQYCITREEKESNQMKKYQWEQNQIKNMKEYIARFGHGSAKLARQAQSKEKTLAKMTRGGLTDAVVKDSRINFEFPCAGPLPPPMLQFREVSFNYPGRPSLFTNLDLGVNMDSRICLVGPNGAGKTTLTKLMCRELEPTAGYVAKNAHCVMARFHQHFVDQINMDLTPLEWMSQEYPDVTQPPILRSALGRFGVSGKAQMTPMKTLSDGQKSRVVFAWMAYKRPHFMILDEPTNHLDIESIDALADAINNFEGAVVVVSHDLRLLAQVADEIWIVEQGEAKRFNGDIADYKEHVQNEVNRMMQNYAASL,not soluble
